According to patent publication US20210388087A1 (Chugai, published 2021):

B1: CE115HA000 Q50L (antibody, human IgG1, kappa, L234A L235A, N297A, name in Kabat numbering)
heavy: QVQLVESGGGVVQPGRSLRLSCAASGFTFSNAWMHWVRQAPGKGLEWVALIKAKSNNYATYYAESVKGRFTISRDDSKNSLYLQMNSLKTEDTAVYYCRYVHYGAYYGVDAWGQGTTVTVSSASTKGPSVFPLAPSSKSTSGGTAALGCLVKDYFPEPVTVSWNSGALTSGVHTFPAVLQSSGLYSLSSVVTVPSSSLGTQTYICNVNHKPSNTKVDKKVEPKSCDKTHTCPPCPAPEAAGGPSVFLFPPKPKDTLMISRTPEVTCVVVDVSHEDPEVKFNWYVDGVEVHNAKTKPREEQYASTYRVVSVLTVLHQDWLNGKEYKCKVSNKALPAPIEKTISKAKGQPREPQVYTLPPSRCELTKNQVSLSCAVKGFYPSDIAVEWESNGQPENNYKTTPPVLDSDGSFFLVSKLTVDKSRWQQGNVFSCSVMHEALHNHYTQKSLSLSPDYKDDDDK
chain: EPKSSDKTHTCPPCPAPELLGGPSVFLFPPKPKDTLMISRTPEVTCVVVDVSHEDPEVKFNWYVDGVEVHNAKTKPREEQYNSTYRVVSVLTVLHQDWLNGKEYKCKVSNKALPAPIEKTISKAKGQPREPQVCTLPPSRDELTKNQVSLWCLVKGFYPSDIAVEWESNGQPENNYKTTPPVLDSDGSFFLYSKLTVDKSRWQQGNVFSCSVMHEALHNRYTQKSLSLSP
light: DIVMTQSPLSLPVTPGEPASISCRSSQSLVHSNRNTYLHWYQQKPGQAPRLLIYKVSNRFSGVPDRFSGSGSGTDFTLKISRVEAEDVGVYYCGQGTQVPYTFGQGTKLEIKRTVAAPSVFIFPPSDEQLKSGTASVVCLLNNFYPREAKVQWKVDNALQSGNSQESVTEQDSKDSTYSLSSTLTLSKADYEKHKVYACEVTHQGLSSPVTKSFNRGEC
notes: one-arm antibody
B2: CE115HA000 Q50Y (antibody, human IgG1, kappa, L234A L235A, N297A, name in Kabat numbering)
heavy: QVQLVESGGGVVQPGRSLRLSCAASGFTFSNAWMHWVRQAPGKGLEWVAYIKAKSNNYATYYAESVKGRFTISRDDSKNSLYLQMNSLKTEDTAVYYCRYVHYGAYYGVDAWGQGTTVTVSSASTKGPSVFPLAPSSKSTSGGTAALGCLVKDYFPEPVTVSWNSGALTSGVHTFPAVLQSSGLYSLSSVVTVPSSSLGTQTYICNVNHKPSNTKVDKKVEPKSCDKTHTCPPCPAPEAAGGPSVFLFPPKPKDTLMISRTPEVTCVVVDVSHEDPEVKFNWYVDGVEVHNAKTKPREEQYASTYRVVSVLTVLHQDWLNGKEYKCKVSNKALPAPIEKTISKAKGQPREPQVYTLPPSRCELTKNQVSLSCAVKGFYPSDIAVEWESNGQPENNYKTTPPVLDSDGSFFLVSKLTVDKSRWQQGNVFSCSVMHEALHNHYTQKSLSLSPDYKDDDDK
chain: EPKSSDKTHTCPPCPAPELLGGPSVFLFPPKPKDTLMISRTPEVTCVVVDVSHEDPEVKFNWYVDGVEVHNAKTKPREEQYNSTYRVVSVLTVLHQDWLNGKEYKCKVSNKALPAPIEKTISKAKGQPREPQVCTLPPSRDELTKNQVSLWCLVKGFYPSDIAVEWESNGQPENNYKTTPPVLDSDGSFFLYSKLTVDKSRWQQGNVFSCSVMHEALHNRYTQKSLSLSP
light: DIVMTQSPLSLPVTPGEPASISCRSSQSLVHSNRNTYLHWYQQKPGQAPRLLIYKVSNRFSGVPDRFSGSGSGTDFTLKISRVEAEDVGVYYCGQGTQVPYTFGQGTKLEIKRTVAAPSVFIFPPSDEQLKSGTASVVCLLNNFYPREAKVQWKVDNALQSGNSQESVTEQDSKDSTYSLSSTLTLSKADYEKHKVYACEVTHQGLSSPVTKSFNRGEC
notes: one-arm antibody
B3: CE115HA000 Q105E (antibody, human IgG1, kappa, L234A L235A, N297A, name in Kabat numbering)
heavy: QVQLVESGGGVVQPGRSLRLSCAASGFTFSNAWMHWVRQAPGKGLEWVAQIKAKSNNYATYYAESVKGRFTISRDDSKNSLYLQMNSLKTEDTAVYYCRYVHYGAYYGVDAWGEGTTVTVSSASTKGPSVFPLAPSSKSTSGGTAALGCLVKDYFPEPVTVSWNSGALTSGVHTFPAVLQSSGLYSLSSVVTVPSSSLGTQTYICNVNHKPSNTKVDKKVEPKSCDKTHTCPPCPAPEAAGGPSVFLFPPKPKDTLMISRTPEVTCVVVDVSHEDPEVKFNWYVDGVEVHNAKTKPREEQYASTYRVVSVLTVLHQDWLNGKEYKCKVSNKALPAPIEKTISKAKGQPREPQVYTLPPSRCELTKNQVSLSCAVKGFYPSDIAVEWESNGQPENNYKTTPPVLDSDGSFFLVSKLTVDKSRWQQGNVFSCSVMHEALHNHYTQKSLSLSPDYKDDDDK
chain: EPKSSDKTHTCPPCPAPELLGGPSVFLFPPKPKDTLMISRTPEVTCVVVDVSHEDPEVKFNWYVDGVEVHNAKTKPREEQYNSTYRVVSVLTVLHQDWLNGKEYKCKVSNKALPAPIEKTISKAKGQPREPQVCTLPPSRDELTKNQVSLWCLVKGFYPSDIAVEWESNGQPENNYKTTPPVLDSDGSFFLYSKLTVDKSRWQQGNVFSCSVMHEALHNRYTQKSLSLSP
light: DIVMTQSPLSLPVTPGEPASISCRSSQSLVHSNRNTYLHWYQQKPGQAPRLLIYKVSNRFSGVPDRFSGSGSGTDFTLKISRVEAEDVGVYYCGQGTQVPYTFGQGTKLEIKRTVAAPSVFIFPPSDEQLKSGTASVVCLLNNFYPREAKVQWKVDNALQSGNSQESVTEQDSKDSTYSLSSTLTLSKADYEKHKVYACEVTHQGLSSPVTKSFNRGEC
notes: one-arm antibody
B4: CE115HA000 Q50S (antibody, human IgG1, kappa, L234A L235A, N297A, name in Kabat numbering)
heavy: QVQLVESGGGVVQPGRSLRLSCAASGFTFSNAWMHWVRQAPGKGLEWVASIKAKSNNYATYYAESVKGRFTISRDDSKNSLYLQMNSLKTEDTAVYYCRYVHYGAYYGVDAWGQGTTVTVSSASTKGPSVFPLAPSSKSTSGGTAALGCLVKDYFPEPVTVSWNSGALTSGVHTFPAVLQSSGLYSLSSVVTVPSSSLGTQTYICNVNHKPSNTKVDKKVEPKSCDKTHTCPPCPAPEAAGGPSVFLFPPKPKDTLMISRTPEVTCVVVDVSHEDPEVKFNWYVDGVEVHNAKTKPREEQYASTYRVVSVLTVLHQDWLNGKEYKCKVSNKALPAPIEKTISKAKGQPREPQVYTLPPSRCELTKNQVSLSCAVKGFYPSDIAVEWESNGQPENNYKTTPPVLDSDGSFFLVSKLTVDKSRWQQGNVFSCSVMHEALHNHYTQKSLSLSPDYKDDDDK
chain: EPKSSDKTHTCPPCPAPELLGGPSVFLFPPKPKDTLMISRTPEVTCVVVDVSHEDPEVKFNWYVDGVEVHNAKTKPREEQYNSTYRVVSVLTVLHQDWLNGKEYKCKVSNKALPAPIEKTISKAKGQPREPQVCTLPPSRDELTKNQVSLWCLVKGFYPSDIAVEWESNGQPENNYKTTPPVLDSDGSFFLYSKLTVDKSRWQQGNVFSCSVMHEALHNRYTQKSLSLSP
light: DIVMTQSPLSLPVTPGEPASISCRSSQSLVHSNRNTYLHWYQQKPGQAPRLLIYKVSNRFSGVPDRFSGSGSGTDFTLKISRVEAEDVGVYYCGQGTQVPYTFGQGTKLEIKRTVAAPSVFIFPPSDEQLKSGTASVVCLLNNFYPREAKVQWKVDNALQSGNSQESVTEQDSKDSTYSLSSTLTLSKADYEKHKVYACEVTHQGLSSPVTKSFNRGEC
notes: one-arm antibody

Each binder was assayed against T1, CD3 epsilon homodimer protein (UniProt P07766 23-126) (assay: SPR, CD3 epsilon homodimer on chip, one-arm antibody as analyte;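 further: surface plasmon resonance at 25 °C with CD3 epsilon homodimer amine-coupled to a CM4 sensor chip, antibody injected as analyte, HBS-EP+ as running buffer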).
T1 construct: also called CD3 (CD3 epsilon)
T1 sequence (P07766 23-126): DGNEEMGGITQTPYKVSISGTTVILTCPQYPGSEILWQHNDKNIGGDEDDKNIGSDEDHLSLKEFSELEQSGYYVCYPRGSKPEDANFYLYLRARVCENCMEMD
Protocol: An appropriate amount of CD3 epsilon homodimer protein was immobilized onto Sensor chip CM4 (GE Healthcare Japan Corp.) by the amine coupling method. Then, the antibody having an appropriate concentration was injected thereto as an analyte and allowed to interact with the CD3 epsilon homodimer protein on the sensor chip. Then, the sensor chip was regenerated by the injection of 10 mmol/L glycine-HCl (pH 1.5). The assay was conducted at 25 degrees C., and HBS-EP+(GE Healthcare Japan Corp.) was used as a running buffer. […] Each parameter was calculated using Biacore T200 Evaluation Software (GE Healthcare Japan Corp.).
B1 was tested, and the “KD ratio (KD of CE115HA000/KD of altered form)” value (shortened to “KD ratio”) was 1.41.
B2 was tested, and the “KD ratio” value was 49.1.
For B3, the “KD ratio” value was 0.89.
For B4, the “KD ratio” value was 47.4.
